In patent US12365732 (23ANDME, dated 2025):
Substitutions are numbered along the chain they refer to. Names may count otherwise.

T1: hu-CD96 isoform 2 on CHO cells (human, UniProt P40200 22-585)
T1 construct: also called CHO-CD96 (isoform 2); CD96-CHOs
T1 sequence: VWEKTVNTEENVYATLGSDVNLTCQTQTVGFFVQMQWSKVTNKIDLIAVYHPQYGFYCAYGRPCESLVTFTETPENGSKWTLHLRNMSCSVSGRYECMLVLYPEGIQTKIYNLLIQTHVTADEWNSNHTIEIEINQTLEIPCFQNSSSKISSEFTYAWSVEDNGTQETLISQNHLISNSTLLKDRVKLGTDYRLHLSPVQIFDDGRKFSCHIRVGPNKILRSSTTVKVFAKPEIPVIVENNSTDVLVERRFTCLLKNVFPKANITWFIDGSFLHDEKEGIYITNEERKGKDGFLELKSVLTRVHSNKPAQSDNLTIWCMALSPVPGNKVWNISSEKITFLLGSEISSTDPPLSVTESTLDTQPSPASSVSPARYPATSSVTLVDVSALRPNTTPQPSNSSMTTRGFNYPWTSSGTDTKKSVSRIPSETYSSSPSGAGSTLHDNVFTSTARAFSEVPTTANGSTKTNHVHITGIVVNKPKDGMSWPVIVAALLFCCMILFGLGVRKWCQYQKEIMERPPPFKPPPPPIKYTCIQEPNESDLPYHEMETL

T2: cynomolgus monkey CD96 on cynomolgus monkey PBMCs (cynomolgus monkey, UniProt A0A2K5TWV6 22-569)
T2 construct: whole, on cells
T2 sequence: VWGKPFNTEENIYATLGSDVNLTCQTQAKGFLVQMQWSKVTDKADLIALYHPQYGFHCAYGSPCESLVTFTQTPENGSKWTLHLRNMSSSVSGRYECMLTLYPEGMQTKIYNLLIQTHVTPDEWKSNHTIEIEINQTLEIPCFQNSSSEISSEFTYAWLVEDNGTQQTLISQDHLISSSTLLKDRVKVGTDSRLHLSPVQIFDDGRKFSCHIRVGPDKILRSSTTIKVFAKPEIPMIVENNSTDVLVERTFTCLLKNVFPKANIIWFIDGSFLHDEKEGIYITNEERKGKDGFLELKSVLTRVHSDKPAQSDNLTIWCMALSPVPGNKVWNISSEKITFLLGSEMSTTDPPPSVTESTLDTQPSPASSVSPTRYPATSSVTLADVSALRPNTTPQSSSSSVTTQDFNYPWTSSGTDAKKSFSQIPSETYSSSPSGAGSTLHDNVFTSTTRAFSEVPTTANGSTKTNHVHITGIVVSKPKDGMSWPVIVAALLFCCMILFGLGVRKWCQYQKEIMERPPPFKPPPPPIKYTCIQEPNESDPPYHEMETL

B1: 10G1 (clone 10G1.3G8), purified hybridoma antibody (antibody, V domains shown)
VH: QIQLVQSGPELKKPGETVKISCKASGYPFTTYGMSWVKQAPGKGLKWMGWINTDSGVPTYADDFKGRFAFSLETSANTAYLQINSLKNEDAATYFCARNIYYGWGNFDYWGQGTILTVSS
VL: DILMTQSPTTLSVTPGETVSLSCRASQDIYRNLHWYQQKSQGTPRLLIKHASDSISGIPSRFTGSGSGTDFTLSINSVKPEDEGIYYCLQGYSMPYTFGGGTKLEIK
notes: murine hybridoma IgG
B2: 9H4, purified hybridoma antibody (antibody, V domains shown)
VH: EVQLLETGGGLVKSGGSLKLSCAASGFTFSDYYMYWVRQTPEKRLEWVAAISDDGTYTYYPDSVKGRFTISRDNANNYLYLQMSSLKSEDTAIYYCAKAGSYDYFDVWGAGTTVTVSS
VL: DIVLTQSPASLAVSLGQRAIISCKASQSVTFADTGLMHWYQQKPGQQPKLLIYRASNLEVGVPTRFSGSGSGTDFTLNIHPVEEEDVATYYCQQSREYPWTFGGGTKLEIK
notes: murine hybridoma IgG
B3: 7E5, purified hybridoma antibody (antibody, V domains shown)
VH: QVQLKESGPGLVAPSQSLSIICTVSGFSLTNYGIHWIRQPPGKGLEWLGIIWAGGSTNYNSALMSRLTISKDNSKSQVFLKMNSLQTNDTAIYYCARVSMMGFAYWGQGTLVTVSA
VL: QAVVTQESALTTSPGETVTLTCRSSTGAVTTSNYANWVQEKPDHLFTGLIGGTNNRAPGVPARFSGSLIGDKAALTITGAQTEDEAIYFCSLWYGSHWVFGGGTKLTVL
notes: murine hybridoma IgG
B4: mAb1.v7 IgG (humanized 12F8) (antibody, V domains shown)
VH: EVQLVQSGAEVKKPGASVKVSCKASGFTFTNNWMHWVRQAPGQGLEWIGMIHPNSGITNINEKFKNRVTMTTDTSTSTAYMELRSLRSEDTAVYYCRSDGTYEGYFDYWGQGTLVTVSS
VL: DIQLTQSPSSLSASVGDRVTITCKASQNVGTAIVWYQQKPGKAPKVLIYSASTRYTGVPSRFSGSGSGTDFTLTISSLQPEDFATYYCQQYSSSPLTFGQGTKVEIKG
notes: human IgG1 N297G
B5: mAb1.v7.NGS9 IgG (antibody, V domains shown)
VH: B4 VH with W33F, P53A, T101V
VL: B4 VL
notes: human IgG1 N297G
B6: mAb1.v7.NGS10 IgG (antibody, V domains shown)
VH: B4 VH with W33F, M50F, P53A, T101I
VL: B4 VL
notes: human IgG1 N297G
B7: mAb1.v7.NGS11 IgG (antibody, V domains shown)
VH: B4 VH with W33F, M50F, P53A, T101V
VL: B4 VL
notes: human IgG1 N297G
B8: h10G1 IgG (humanized 10G1) (antibody, V domains shown)
VH: EIQLVQSGSELKKPGASVKVSCKASGYPFTTYGMSWVRQAPGQGLEWMGWINTDSGVPTYADDFKGRFVFSLDTSVSTAYLQISSLKAEDTAVYFCARNIYYGWGNFDYWGQGTLVTVSS
VL: EIVMTQSPDFQSVTPKEKVTITCRASQDIYRNLHWYQQKPDQTPKLLIKHASDSISGIPSRFSGSGSGTDFTLTINSLEAEDAAAYYCLQGYSMPYTFGGGTKVEIKG
notes: human IgG1 N297G

Tests used:
[1] = target: T1, hu-CD96 isoform 2 on CHO cells; experiment: FACS, Ab 0.08 nM
Procedure: Isoform 1 of hu-CD96 (Origene, catalog #RC213845) was transiently expressed in HEK293T cells following standard lipofectamine or Fugene transfection protocol. […] Cells were washed, and binding was detected by incubation with anti-mouse IgG-FITC (Biolegend, catalog #406001) for 20 minutes at 4° C. Cell binding was analyzed by flow cytometry with a CytoFLEX (Beckman Coulter). Binding curves were calculated as a percentage of cells positive for bound antibody.
Isoform 2 of hu-CD96 (DNA construct: Origene, catalog #RC221005) was expressed on a single-cell-clone-derived CHO stable cell line. Binding of the anti-CD96 antibodies to the CHO cells were determined as described above with isoform 1 of hu-CD96.

[2] = target: T2, cynomolgus monkey CD96 on cynomolgus …; experiment: FACS, Ab 0.128 nM
Procedure: (§1) The ability of the anti-CD96 antibodies to bind primary immune cells from human and cynomolgus monkey with lower level of receptor expression was measured. Human PBMCs (StemCell Technologies, catalog #70025) and cynomolgus monkey PBMCs (Primate Biologicals, catalog #CM-MC) were incubated with human TruStain FcX (Biolegend, catalog #422302) for 10 minutes at 4° C., followed by incubation with an anti-CD96 antibody for 20 minutes at 4° C. Cells were washed and the anti-CD96 antibody binding was detected by incubation with anti-mouse IgG-PE (Thermo Fisher, catalog #M30204) or anti-human IgG (Fab) 2-PE (Thermo Fisher, catalog #H10104) for 20 minutes at 4° C. Cells were washed, and immune subtypes were labeled with anti-CD3 (BD, catalog #557705), anti-CD4 (Biolegend, catalog #317424) and anti-CD8 (BD, catalog #557760) for 20 minutes at 4° C. Cell binding was analyzed by flow cytometry with a CytoFLEX (Beckman Coulter). Binding curves were calculated as a percentage of cells positive for bound antibody in the cell type of interest.

[3] = target: T2, cynomolgus monkey CD96 on cynomolgus …; experiment: FACS, Ab 0.00512 nM
Procedure: as §1

[4] = target: T1, hu-CD96 isoform 2 on CHO cells; experiment: FACS, CD155-Fc-FLAG 10 nM, Ab 4 nM
Procedure: (§2) CHO cells stably expressing isoform 2 of hu-CD96 (Origene, catalog #RC221005) were incubated with anti-CD96 antibodies for 20 minutes at 4° C. The cells were washed, and then incubated with 10 nM human CD155-Fc-FLAG for 30 minutes at 4° C. Cells were washed, and then human CD155-Fc-FLAG binding was detected by incubation with anti-FLAG-APC (Columbia Biosciences, catalog #D3-1718-1MG) for 20 minutes at 4° C. Cell binding was analyzed by flow cytometry with a CytoFLEX (Beckman Coulter). CD155 binding is represented as median fluorescence intensity (MedFI).
(§3) As shown in Table 20 (below), the anti-CD96 antibodies, mAb1.v7.NGS8, mAb1.v7.NGS9, mAb1.v7.NGS10, mAb1.v7.NGS11, and h10G1 inhibited soluble hu-CD155 binding to CD96-expressing CHO cells dose-dependently and potently. The antibody NK92.39 (Fuchs et al., 2004; Biolegend catalog #338405) inhibited receptor binding similarly.

[5] = target: T1, hu-CD96 isoform 2 on CHO cells; experiment: FACS, CD155-Fc-FLAG 10 nM, Ab 0.032 nM
Procedure: as §2, §3

| Binder | % positive [1] [%] | % positive [2] [%] | % positive [3] [%] | CD155-Fc binding (MedFI) [4] [MedFI] | CD155-Fc binding (MedFI) [5] [MedFI] |
| --- | --- | --- | --- | --- | --- |
| B1 | 9.4 |  |  |  |  |
| B2 | 3.1 |  |  |  |  |
| B3 | 24.6 |  |  |  |  |
| B4 | 1.4 |  |  |  |  |
| B5 |  | 49.4 | 7.1 | 6100 | 53000 |
| B6 |  | 64.6 | 9.5 | 4940 | 57700 |
| B7 |  | 63.5 | 10.4 | 4860 | 57700 |
| B8 |  | 38.2 | 7.4 | 4860 | 52100 |
